The nanobody polyreactivity screen of Harvey et al. (2022)

Experiment: yeast display, Sf9 membrane polyspecificity reagent, FACS + sequencing; frameworks hold sequencing errors
Outline: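 Nanobodies came from a synthetic yeast display library in Saccharomyces cerevisiae BJ5465, induced with galactose for 36–48 hours and stained for 1 hour at 4 °C with 10% biotinylated, detergent-solubilized Sf9 membrane reagent. Cells were enriched on streptavidin microbeads and then FACS-sorted, with low and high (top ~1%) gates set on anti-HA fluorescence for expression and streptavidin fluorescence for reagent binding. Each polyreactivity label reflects the gate a clone came from. Genes were amplified by colony PCR, sequenced by MiSeq 2 × 250 and filtered by CDR length.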

QVQLVESGGGLVQAGGSLRLSCAASGSIFIWYAMGWYRQAPGKERELVAAITSSGSTNYADSVKGRFTISRDNAKNTVYLQMNSLKPEDTAVYYCADEYTYYTYNLNYWGQGTQVTVSS
polyreactivity (PSR sort gate): low polyreactivity

QVQLVESGGGLVQAGGSLRLSCAASGLIFYRNAMGWYRQAPGKERELVAGITRGSNTYYADSVKGRFTISRVNAKNTVYLQMNSLKPEDTAVYYCAAQVPVLQRAGNTRFGYWGQGTQVTVSS
polyreactivity (PSR sort gate): low polyreactivity

QFQLVESGRGLVQAGGSLRLSCAASGRIFSYNTLGWYRQAPGKERELVAAITNNGGSTYYADSVKGRFTISRDNAKNTVYLQMNSLKPEDTAVYYCNRDRYPFYYAYNYWGQGTQVTVSS
polyreactivity (PSR sort gate): low polyreactivity

QVQLVESGGGLLQAGGSLRLSCAASGRIFGGYDMGWYRQAPGKERELVASISYSGGTTYYADSVKGRFTISRDNAKNTVYLQMNSLKPEDSAVYYCAALSQHNDSGYDYWGQGTQVTVSS
polyreactivity (PSR sort gate): high polyreactivity

QVQLVESGGGLVQAGGSLRLSCAASGSTFNKYTMGWYRQAPGKERELVASISSDGSTNYADSVKGRFTISRDNAKNTVYLQMNSLKPEDTAVYYCAADEGTGQASLSSNLYDYWGQGTQVTVSS
polyreactivity (PSR sort gate): low polyreactivity

QVQLVESGGGLVQAGGSLRLSSAASGGIFRIYGMGSYRQAPGKERELVADISIGGRTTYADSVKGRFTISRDNAKNTVYLQMHSLKPEDTAVYYCKTPYWYRIGQRLAWYDYWGQGTQVTVSS
polyreactivity (PSR sort gate): low polyreactivity

QVQLVESGGCLVQAGGSLRLSCAASGRTFSRNAMGWYRQAPGKERELVAAISQRGVYTYYADSVKGRFTISRDNAKNTVYLQMNRLKPEDSAVYYCNTRGTYRYDYWGQGTQVTVSS
polyreactivity (PSR sort gate): low polyreactivity

QVQLVESGGGLVQAGGSLRLSCAASGRIFPNYVMGWYRQAPGKERELVAAISRRGGRTYYADSVKGRFTISRDNAKNTVYLQMNSLKPEDTAVYYCARVPTRAEDVAGWTGMDYWGQGTQVTVSS
polyreactivity (PSR sort gate): high polyreactivity

QVQLVESGGGLFQAGGSLRLSCAASGRTVVGYAMGWYRQAPGKERELVAAFTGSGGRTYDADSVKGRFTISRDNAKNTVYLQMKSLKPEDTAVYYCNNVYRFSSGAYLYDYWVQGTQVTVSS
polyreactivity (PSR sort gate): high polyreactivity

QVQLVESGGGLVQAGGSLRISCAASGSIFLLYTMGWYRQAPGKEREMVATITSSGGSTYYADSVKGRFTISRDNAKNTVYLHMNSLKPEDTAVYDCNAVGSTWGSFVRYGAQYDYWGQGTEVTVSS
polyreactivity (PSR sort gate): low polyreactivity

QVQLVESGGGLVQAGGSLRLSCAASGSNFSTYVMGWYRQAPGKERELVATISASDGSTYYADSVKGRFTISRDNAKNTVYLQMNSLKPEDSAVYYCAADTQEYRPTYDYWGQGTQVTVSS
polyreactivity (PSR sort gate): low polyreactivity

QVQLVESGGGLVQAGGSLRLSSAASGITFCRNTMGWYRQAPGKERELVAAIDSGGNTYADSVKGRFTISRDNAKNTVNLHINSLKPEYTAVYYCAKDSGPRGSYGYAFDSWGQGTQVTVSS
polyreactivity (PSR sort gate): low polyreactivity

QVQLVESGGGLVQAGGSLRLSCAASGSIFASYVMGWYRQAPGKERELVASITLSGGSTYYADSVKGRFTISRDNAKNTVYLQMNSLKPEDTAVYYCAKRGTLWLQEDYYWGQGTQVTVSS
polyreactivity (PSR sort gate): low polyreactivity

QLQLVESGGGLVQAGGSHRLSCAASGSIFTGYAMGRSRQAPGKQREFVAAISWSGSSTYYADSVKGRFTISRDNGKNTVYVQMNSLKPEDTAVYYCNAVKGWWGYYSSVDFDYWGQGTQVTVSS
polyreactivity (PSR sort gate): low polyreactivity

QVQLVESGGGLDQAGGSLRLSCAASGKTFGNYGMGWYRQAPGKERELVAAISWTGGSTYYADSVKGRFTISRDNAKNTVYLQMNSMKPEDTAVYSCNKRPYLLFDYWGQGTQVTVSS
polyreactivity (PSR sort gate): high polyreactivity

QVQHVESGGGLVQAGGSLRLSCAASGYIFSRYMGWYRQAPGKERQLVAAITRGGVSTYYADSVKGRFTISRDNAKNTVYLQMNSLKPEDTAVYYCATGRPVYYVASYDYDYWGQGTQVTVSS
polyreactivity (PSR sort gate): low polyreactivity

QVHLVESGGGLVQAGGSLRLSCAASGLIFGRNAMGWYRQAPGKERELVAAISTRGGSTYYADSVKGRFTISRDNAKNTVYLQMNSLKPEDTAVYYCAARGSYGYDYWGQGPQVTVSS
polyreactivity (PSR sort gate): high polyreactivity

QVQLVESGGGLVQAGGSLRLSSAASGSILWQYAMGWYRQAPGKERELVAAITYSGGSTHYADSVKGRFTISRDNAKNTVYLQMNSLKPEDTAVYYCAAGYWSRYAALRYDHWGQGTQVTVSS
polyreactivity (PSR sort gate): low polyreactivity

QVQLVESGGGLVQAGGSLRLSCAASGRTFVYNAMGWYRQAPGKERELVAAITTNGGSTYYADSVKGRFTISRDNSKNTVYLQMNSLKPEDTAVYYCAADYSLPWSWLYEYWGQGTQVTVSS
polyreactivity (PSR sort gate): low polyreactivity

QVQLVESGGGLVQAGGSLRLSCAASGRIFVKNAMGWYRQAPGKERELVATISSGGNTNYADSVKGRFTISRDNAKNTVYLQLNSLKPEDTAVYYCAAVWDLGDYELPYDYWGQGTQVTVSS
polyreactivity (PSR sort gate): low polyreactivity

QVQLVESGGGLVQAGGSLRLSCAASGFTLANYAMGWYRQAPGKERELVAAIDYSGGGTYYADSVKGRFTISRDNAKNTVYFQMNSLKPEDTAVYYCAARRWSYYSAKYDYWGQGTQVTVSS
polyreactivity (PSR sort gate): low polyreactivity

QVQLVESGVGLVQAGGSLRLSCAASGFIFNYNTMGWYRQAPGKERELVAAISSSGGSTYYADSVKGRFTISRDNAKNTVYLQMNSLKPEDTAVYYCAAGANAQRVPNGDYWGQGTQVTVSS
polyreactivity (PSR sort gate): low polyreactivity

QVQLVESVGCLVQAGGSLRLSCPASGFNFPGYALGWYRQAPGKERELVAAITGSGGRTYYADSVKGRFTISRDNAKNTVYLQMNSLKQEDTAVYYCLARSYYNWNDYWGQGTQVTVSS
polyreactivity (PSR sort gate): high polyreactivity

QVQLVESGGGLVQAGGSLRLSCAASGSTFDSNGMGWYRQAPGKERELVADITYSDGRTYADSVKGRFTISRDNAKNTVYLQMNSLKPEDTAVYYCAVSDSVYAGFTSYDYWGQGTQVTVSS
polyreactivity (PSR sort gate): low polyreactivity

QVQLVESGGGLVQAGGSLRLSCAASGRTFESYVMGWYRQAPGKESELVAAISNGGSTNYADSVKGRFTISRDNAKNTVYLQMNSLKPEDTAVYYCAVRVSGPRGYDYEYWGQGTQVTVSS
polyreactivity (PSR sort gate): low polyreactivity

QVQLEESGGGLVQAGGSLRLSCAASGRTFNRYVMGWYRQAPGKERELVAAITWRGGSTYYADSVKGRFTISRDNAKTSVYLQMNSLKPEDTAVYYCAARYSGGYSVDAFDYWGQGTQVTVSS
polyreactivity (PSR sort gate): high polyreactivity

QVQLVESGGGLVQAGGSLSLSCAASGFISASNVMGWYRHAPGKERELVAAINWSGDNTYYADSVKWRFTISRDTAKNTVYLLMNSLKAEDTAVYYCNDDVYSYATPEMDYWGQGTQVTVSS
polyreactivity (PSR sort gate): low polyreactivity

QVQLVESGGGLVQAGGSLRLSCAASGNTFAPYAMGWYRQAPGKERELVATISYRGGSTNYADSVKGRFTISRDNAKNTVYLQMNSLKPEDTAVYYCNARYRWVVNRYSASGGSYNYWGQGTQVTVSS
polyreactivity (PSR sort gate): high polyreactivity

QVQLVESGGGLVQAGGSLRLSCAASGRIFGYNAMGWYRQAPGKERELVATISSGGGTNYADSVKGRFTISRDNAKNTVYLQMNSLKPEDTAVYYCNARIVYYYKRYTRDYEYWGQGTQVTVSS
polyreactivity (PSR sort gate): low polyreactivity

QVQLVESGGGLVQAGGSLRLSCAASGSTFYPYAMGWYRQAPGKERELVAAITSSGGSTYYADSVKGRFTISRDNAKNTVYLQMNSLKPEDSAVYYCAKLHVPPVHYDYWGQGTQVTVSS
polyreactivity (PSR sort gate): low polyreactivity

QVQLVESGGGLVQAGGSLRLSCAASGRIFFRYVMGWYRQAPGKERELVAAISSGGRTYYADSVKGRFTISRDNAKNTVYLQMNSLKPEDTAVYYCAADLLLYSSQDNDYWGQGTQVTVSS
polyreactivity (PSR sort gate): low polyreactivity
